The values below come from article PMC10462243 (Research Square, 2023).

Sequences and labels used below:
B2: Plk4 CPB(581–808), purified (domain or fragment, UniProt O00444 581-808, looked up)
chain: GYQNRTLRSITSPLVAHRLKPIRQKTKKAVVSILDSEEVCVELVKEYASQEYVKEVLQISSDGNTITIYYPNGGRGFPLADRPPSPTDNISRYSFDNLPEKYWRKYQYASRFVQLVRSKSPKITYFTRYAKCILMENSPGADFEVWFYDGVKIHKTEDFIQVIEKTGKSYTLKSESEVNSLKEEIKMYMDHANEGHRICLALESIISEEERKTRSAPFFPIIIGRKPG
notes: Plk4 cryptic polo-box, residues 581–808; Two copies for each Vpr•VprBP in the SEC complex; The construct has a TEV site

Holding throughout (test): SEC; purified Vpr, VprBP(1057–1507), Plk4 CPB(581–808) and DDB1; HisTrap eluate of VprBP and Vpr digested with TEV, mixed with Plk4 CPB; SEC in 20 mM Tris-HCl pH 7.5, 100 mM NaCl, 10% glycerol; stoichiometry estimated from Coomassie-stained protein intensity
The target of data set [1] is B2. The settings on record: both partners purified.
Data set [2] deals with T1, Vpr•VprBP WD40-AR complex ( | HIV-1 (pNL4–3), UniProt Q9Y4B6;P12520).
T1 construct: VprBP (DCAF1) WD40 domain and acidic region; HIV-1 Vpr ORF; Chains as m38 and m37, formed by co-expression before Plk4 CPB was added; also called VprBP (WD40-AR)•Vpr complex; source: Tni-FNL insect cells, co-expressed, purified (HisTrap, TEV); not shown: His, N-terminal, cleaved; MBP, N-terminal, cleaved; copies: 1 + 1
The settings on record: both partners purified.

Data set [3] deals with the molecule itself.

T1 sequence (Q9Y4B6 1057-1507, one chain of several): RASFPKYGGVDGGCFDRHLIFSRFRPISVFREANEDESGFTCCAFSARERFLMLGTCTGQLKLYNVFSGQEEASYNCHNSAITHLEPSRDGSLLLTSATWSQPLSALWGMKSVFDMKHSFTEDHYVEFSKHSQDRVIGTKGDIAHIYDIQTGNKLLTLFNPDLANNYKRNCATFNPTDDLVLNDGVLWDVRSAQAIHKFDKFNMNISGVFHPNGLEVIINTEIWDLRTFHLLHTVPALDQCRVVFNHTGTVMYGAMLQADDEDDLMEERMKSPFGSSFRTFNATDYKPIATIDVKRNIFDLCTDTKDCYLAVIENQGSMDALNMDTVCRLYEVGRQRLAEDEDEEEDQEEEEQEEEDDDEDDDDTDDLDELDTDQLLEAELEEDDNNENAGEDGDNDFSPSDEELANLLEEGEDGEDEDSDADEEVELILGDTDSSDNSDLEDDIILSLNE

B1: Vpr (insect cells, co-expressed with VprBP WD40-AR) (natural protein)
chain: MEQAPEDQGPQREPYNEWTLELLEELKSEAVRHFPRIWLHNLGQHIYETYGDTWAGVEAIIRILQQLLFIHFRIGCRHSRIGVTRQRRARNGASRS
notes: HIV-1 Vpr ORF, expressed on its own from a p10 promoter in the dual construct; also called 11-kDa Vpr; source: Tni-FNL insect cells, co-expressed with His-MBP-TEV-VprBP, purified (HisTrap, SEC)
With B1, the binding result in data set [1] is “binds”. B2: in data set [2], the stoichiometry N (usually a count of units in the complex or per binding partner) is around 2. Besides, the binding result in data set [3] was “binds”.
